The target of test [1] is T1, Human LRP-8 (isoform 3) expressed on cells (human, UniProt Q14114 33-963).
T1 construct: also called hLRP-8; huLRP-8
Nature of the test: cell-based MSD, 1 to 25, human_LRP8_HEK293.

Test [2] concerns the target T2, Cynomolgus monkey LRP-8 expressed on HEK293 cells (cynomolgus monkey).
T2 construct: whole, on cells; also called cyno LRP-8; cLRP-8
Nature of the test: cell-based MSD, 1 to 5, cyno-LRP8-HEK293.

The target in test [3] is T2, Cynomolgus monkey LRP-8 expressed on …. Briefly: cell-based MSD, 1 to 25, cyno-LRP8-HEK293.
Test [4] addresses T1, Human LRP-8 (isoform 3) expressed on …. Nature of the test: cell-based MSD, 1 to 5, human_LRP8_HEK293.
The target of test [5] is T2, Cynomolgus monkey LRP-8 expressed on …. Nature of the test: cell-based MSD, 1 to 125, cyno-LRP8-HEK293.
Test [6] deals with T1, Human LRP-8 (isoform 3) expressed on …. Nature of the test: cell-based MSD, 1 to 125, human_LRP8_HEK293.
The target in test [7] is T2, Cynomolgus monkey LRP-8 expressed on …. Nature of the test: cell-based binding on CYNO LRP8-HEK293, supernatant 1:125.
The target of test [8] is T1, Human LRP-8 (isoform 3) expressed on …. Briefly: cell-based or functional assay.
The target of test [9] is T2, Cynomolgus monkey LRP-8 expressed on …. Briefly: cell-based binding on CYNO LRP8-HEK293, supernatant 1:5.
Test [10] has the same target. Briefly: cell-based binding on CYNO LRP8-HEK293, supernatant 1:25.
For test [11] the target is unchanged. Briefly: cell-based ECL-MSD, 10 ug/ml Ab, cyno-LRP-8-HEK293. How it is done: (§1) A cell-based ECL-MSD binding assay was used to determine antibody affinity. HEK293 cells overexpressing human, monkey or mouse LRP-8 were added onto MSD 96-well plate (MSD Cat# L15XB-3/L11XB-3) and incubated at 37° C. for one hour. Cells were blocked using 15% FBS (Hyclone, Thermo Scientific Cat# SH300700.03) at RT for 30 minutes with mild agitation. Plates were washed with DPBS three times and Abs or DVD-Ig binding proteins were added to the well. After incubation at RT for one hour, plates were washed with DPBS and goat anti-human or anti-mouse Sulfo TAG (MSD Cat#R32AJ-1) was added. Plates were incubated at RT for one hour, washed with DPBS and immersed in MSD read buffer (MSD Cat#R92TD-2) before reading on a MSD SECTOR Imager 6000. EC50 values were obtained using Xlfit4 software system.

For test [12], the target named is T1, Human LRP-8 (isoform 3) expressed on …. Nature of the test: cell-based or functional assay. This is another data set of the same source.
The target is the same in test [13]. Briefly: cell-based ECL-MSD, 10 ug/ml Ab, human_LRP-8_HEK293. How it is done:
as §1

The target is the same in test [14]. Briefly: huLRP-8 cell-based binding.
The target of test [15] is T3, CR2 cyclic peptide of human LRP-8 (human, disulfide 1-13).
T3 construct: also called CR2 peptide; conjugated human LRP-8 CR2 peptide
T3 peptide: CADSDFTSDNGHCIHERWK-{Lys(Aoa)-NH2}
Nature of the test: antibody titrated on plates coated with 1 ug/ml CR2 peptide (Example 1.12.2); lower table, column ng/ml. The method, then: (§2) High binding MSD plates (MSD Cat# L15XB-3/L11XB-3) were coated with 1 μg/ml of CR1 or CR2 peptide overnight at 4° C. The next day, the plate was blocked with 3% MSD blocking buffer (MSD Cat# R93AA-01) for 1 hour at RT. The plates were washed with TTBS buffer (20 mM Tris; 0.5% Tween, 150 mM sodium chloride; pH 7.5) three times and a titer of anti-LRP-8 human Fc Ab was added. After incubating for 1 hour at RT, plate was washed and anti-human SULFO-TAG Ab was added to the plate and incubated for 1 hour. The plates were washed and immersed in MSD read buffer T with surfactant (MSD Cat# R92TC-1) before reading on an MSD SECTOR Imager 6000. Data were obtained and analyzed using a GraphPad Prism 6 software package (GraphPad Software, Inc., La Jolla, Calif.).

For test [16], the target named is T4, CR1 cyclic peptide of human LRP-8 (human, disulfide 1-13).
T4 construct: also called CR1 peptide; conjugated human LRP-8 CR1 peptide
T4 peptide: CEKDQFQSRNERCIPSVWR-{Lys(Aoa)-NH2}
Nature of the test: ELISA using CR1 peptide.

Test [17] addresses T2, Cynomolgus monkey LRP-8 expressed on …. Briefly: cell-based MSD-ECL binding on cells overexpressing cyno LRP-8 variant 1 (cynoLRP8 assay). The method, then:
as §1

For test [18] the target is unchanged. Nature of the test: cell-based binding assay, cynoLRP8.
Test [19] deals with T1, Human LRP-8 (isoform 3) expressed on …. Briefly: cell-based binding assay, hLRP8.
Test [20] has as its target T4, CR1 cyclic peptide of human LRP-8. Briefly: antibody titrated on plates coated with 1 ug/ml CR1 peptide (Example 1.12.2); lower table, column ng/ml. The method, then: as §2
In test [21] the target is T5, CR1.3 variant cyclic peptide (human, disulfide 1-13).
T5 peptide: H-CEKDQFQSRAERCIPSVWR-{Lys(Aoa)-NH2}
Briefly: ELISA, antibody titrated on coated CR1.3 peptide. How it is done: as §2

The target in test [22] is T6, CR1.2 variant cyclic peptide (human, disulfide 1-13).
T6 peptide: H-CEKDQFQARNERCIPSVWR-{Lys(Aoa)-NH2}
Briefly: ELISA, antibody titrated on coated CR1.2 peptide. How it is done: as §2
In general terms: An ELISA detects its analyte on a solid surface through an enzyme-linked reagent.

Test [23] concerns the target T2, Cynomolgus monkey LRP-8 expressed on …. Briefly: FACS, cyno LRP8 cells. (A flow cytometer gives signals particle by particle.)
Test [24] addresses T1, Human LRP-8 (isoform 3) expressed on …. Nature of the test: cell-based MSD-ECL binding on cells overexpressing human LRP-8 variant 3 (hLRP8 assay). The method, then:
as §1

For test [25], the target named is T7, CR1.4 variant cyclic peptide (human, disulfide 1-13).
T7 peptide: H-CEKDQAQARAERCIPSVWR-{Lys(Aoa)-NH2}
Nature of the test: BIACORE and direct ELISA. On the technique in general: In SPR one partner is held on a chip, and binding of the other changes the refractive index at the surface.

The target in test [26] is T8, CR1.1 variant cyclic peptide (human, disulfide 1-13).
T8 peptide: H-CEKDQAQSRNERCIPSVWR-{Lys(Aoa)-NH2}
Nature of the test: ELISA, antibody titrated on coated CR1.1 peptide. The method, then: as §2

Where “and” joins values, the source holds several entries; their conditions need not be identical. Equal entries are not always repeated. *1 amine or outer side, *2 acyl side, *3 side chain or, on linkers, in order; H or OH if unused. Bridges are numbered along the chain shown (N, C = ends). Where no end group is shown, it is not given here. Lys(Aoa) = NOCC(=O)NCCCC[C@H](N[*:1])C(=O)[*:2]

T1 sequence (Q14114 other isoform, or with tags, fused parts or gaps limits assumed): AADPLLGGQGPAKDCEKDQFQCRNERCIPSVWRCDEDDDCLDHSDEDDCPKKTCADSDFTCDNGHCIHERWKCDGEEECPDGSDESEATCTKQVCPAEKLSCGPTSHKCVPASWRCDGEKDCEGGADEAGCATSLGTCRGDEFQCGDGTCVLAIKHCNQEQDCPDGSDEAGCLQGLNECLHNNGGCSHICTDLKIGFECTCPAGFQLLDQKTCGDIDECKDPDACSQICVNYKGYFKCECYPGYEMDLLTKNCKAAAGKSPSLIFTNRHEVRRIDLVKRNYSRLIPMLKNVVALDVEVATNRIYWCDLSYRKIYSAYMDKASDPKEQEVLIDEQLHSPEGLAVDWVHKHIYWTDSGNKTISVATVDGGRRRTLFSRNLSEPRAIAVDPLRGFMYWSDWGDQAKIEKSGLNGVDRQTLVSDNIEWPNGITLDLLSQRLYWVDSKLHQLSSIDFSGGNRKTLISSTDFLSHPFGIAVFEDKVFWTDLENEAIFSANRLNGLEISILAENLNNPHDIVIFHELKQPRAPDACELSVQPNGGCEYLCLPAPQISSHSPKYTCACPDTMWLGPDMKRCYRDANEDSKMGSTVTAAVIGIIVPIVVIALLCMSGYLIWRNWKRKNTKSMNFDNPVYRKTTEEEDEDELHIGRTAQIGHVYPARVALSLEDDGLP

B1: BGK-7F7 (GENOVAC candidate clone of Table 17) (antibody, V domains shown)
VH: QVTLKESGPGILQPSQTLSLTCTFSGFSLSTYGLGVGWIRQPSGKGLEWLANIWWDDAKYYNPSLKNRLTISKDTSNNQAFLKIPNVDTADTARYYCARTTKPYYFDYWGQGVMVTVSS
VL: HFVLAQPNSVSTNLGSTVKLSCKRSTANIGSNYVNWYQQHEGRSPTTLIYRDDRRPDGVPDRFSGSIDRSSNSALLTINNVQTEDEADYFCQSYSSGINIFGGGTKLTVL
notes: here the candidate from rat immunization before chimerization, tested at dilutions
Regarding B1, the “fold over IgG control” value amounted to 5.2 fold in test [1]; 2 fold in test [2]; 1.9 fold in test [3]; 5 fold in [4]; 1.8 fold in test [5]; 5 fold in test [6]. In addition, the “fold over isotype control” value is 1.5 fold in [7], 3.23 fold in test [9] and 1.86 fold in test [10]. Besides, the “Endocytosis, fold over-IgG” value in test [8] was 5.18 fold. Also, the “Transcytosis, fold over-IgG” value in test [8] was 2.17 fold.

B2: anti-LRP-8 ML199-11H1.5B2 murine antibody (muFc) (antibody, V domains shown)
VH: EVQLVESGGDLVKPGGSLKLSCAASRFTFSNYGMSWVRQTPDKRLEWVATISSGGRYTYYPDSVKGRFTISRDNAKNTLYLQMSSLRSEDTAMYYCARDYLYAMDYWGQGTSVTVSS
VL: DVVMTQTPLSLPVSLGDQASISCRSSQSLVYSNGNTYLHWYLQKPGQSPKVLMYKVSNRFSGVSDRFSGSGSGTDFTLKISRVEAEDLGVYFCSQSTHVPLTFGAGTKLELK
notes: Mouse Fc form (muFc); also called ML199-11H1-5B2 muFc; anti-LRP-8,11H1.5B2
What is called EC50 is the midpoint of the concentration-response curve. As for B2, the entries for the “fold over mIgG control” value in [11] and in [13] were 7 fold and 15.1 fold, respectively. In addition, the “Endocytosis, fold over IgG control” value in test [12] was 1.7 fold. Moreover, the “Transcytosis, fold over IgG control” value in test [12] came out at 2 fold. For the same molecule, the EC50 in test [14] was determined as 0.4 nM.

B3: chimeric anti-LRP-8 ML199.11H1.5B2 antibody [mu/hu IgG1/k] LALA (antibody, V domains shown)
VH: EVQLVESGGDLVKPGGSLKLSCAASRFTFSNYGMSWVRQTPDKRLEWVATISSGGRYTYYPDSVKGRFTISRDNAKNTLYLQMSSLRSEDTAMYYCARDYLYAMDYWGQGTSVTVSS
VL: DVVMTQTPLSLPVSLGDQASISCRSSQSLVYSNGNTYLHWYLQKPGQSPKVLMYKVSNRFSGVSDRFSGSGSGTDFTLKISRVEAEDLGVYFCSQSTHVPLTFGAGTKLELK
notes: Mouse variable domains on human IgG1/kappa with L234A, L235A (LALA); also called ML199.11H1.5B2 hFc; ML199.11H1.5B2 mu/hu IgG1 m/k
Take B3: the EC50 is 0.312 µg/mL in [15]; 0.0691 µg/mL and 0.46 nM in [17]; 0.21 nM in [18]; 0.22 nM in [19]; 0.225 µg/mL in [20]; 0.0484 µg/mL and 0.32 nM in [24]. In addition, in test [16], the OD450 is 4 OD450. For the same molecule, the binding result in test [21] is given as “binds”; in test [22], “binds”; in test [25], “no binding”; in [26] it was “no binding (tested: 10000 ng/ml)”. The “FACS (ratio +/-)” value in test [23] was 141 ratio.

For the origin of these results see patent publication US20160200813A1 (AbbVie / Abbott, published 2016).
